Laboratory results as given in the Human Domainome abundance scans (Beltran et al. 2025).

B1: Serine/threonine-protein kinase A-Raf, residues 21 to 89; numbered along this chain, P10398 (parent)
chain: VKVYLPNKQRTVVTVRDGMSVYDSLDKALKVRGLNQDCCVVYRLIKGRKTVTAWDTAIAPLDGEELIVE

Variants of: B1
Assay: abundance fitness (aPCA) (normalised: wild type 0, dead -1); higher = more abundant; growth selection in yeast, the domain comes from the species named
Settings: Homo sapiens

Abundance fitness, by site and new letter:
A53: C -0.166; L -0.455; W -0.728; R -0.149; S -0.058; Q -0.078; K -0.079; D -0.03; H -0.098; M -0.549; N -0.257; P 0.032; T -0.127; Y -0.377; G -0.033; E 0.08
D55: N -0.098; A -0.346; F -0.872; T -0.335; L -0.908; M -0.557; E -0.089; Y -0.648; K -0.347; G -0.204; V -0.773; S -0.168; R -0.343; H -0.234; Q -0.024; C -0.52; P -0.852; I -0.452
R48: Q -0.094; F -0.216; M -0.183; C -0.366; D -0.271; T -0.072; W -0.535; V 0.05; A -0.128; S -0.288; G -0.479; L -0.307; P -0.474; K 0.097; E 0.025; H -0.025
G47: H -0.907; P -0.959; F -0.998; K -0.768; M -1.06; Q -0.359; W -0.888; S -0.734; N -0.665; L -0.873; R -0.841; E -0.573; V -0.863
A59: C -0.188; D -0.08; G 0.017; E -0.068; I 0.131; F -0.015
V51: Y -0.255; T -0.324; M 0.093; K -0.001; L 0.026; I 0.102; P 0.031; E -0.128; H -0.156; Q -0.032; R -0.002; G -0.662; A -0.102
I58: C -0.001; V -0.185; M -0.004; T -0.729; L -0.015; K -0.86; G -0.725; A -0.201; Y 0.146; D -0.881; Q -0.952; N -0.858; S -0.278; F -0.021; P -0.872
K49: H -0.551; Y -0.668; P -0.445; L -0.331; G -0.863; A -0.516; Q -0.566; D -0.804; E -0.847; F -0.63; R -0.135; V -0.934; C -0.672; M -0.22; S -0.8; T -0.968
T50: V 0.362; R -0.173; E -0.515; S -0.402; A -0.227; P -0.715
T52: R -0.529; P -1.04; A -0.174; G -0.956; D -0.978; W -0.31; C -0.161; Y -0.188; S -0.567; I 0.141; K -0.356; H -0.625; L 0.052; M 0.118; F -0.708; V 0.117; Q -0.317
W54: M -0.499; V -0.913; P -0.924; K -0.843; Y -0.756; E -0.96; G -1.03; F -0.89; D -0.743; R -0.879; N -0.917; S -0.808; Q -0.916; T -0.797
T56: V -0.235; L -0.253; D -0.069; I -0.47; C -0.09; F -0.693; K -0.153; M -0.095; Y -0.225; N -0.278; S -0.009; A 0.021; G -0.21; E 0.106; P -0.614; R -0.276; H -0.151
